Test results as given in patent publication US20190100594A1 (INHIBRX, published 2019).
Substitutions are numbered along the chain they refer to. Read-outs that look alike come from different tables or passages of the source. One block for each binder: values may come before it.

Experiments:
human GITR-CHO [1] = target: T1, human GITR-CHO (human, UniProt Q9Y5U5); assay: flow cytometry on human GITR-CHO cells
T1 construct: expressed on the surface of CHO cells, construct not described; also called human GITR expressed on the surface of CHO cells
T1 sequence (looked up): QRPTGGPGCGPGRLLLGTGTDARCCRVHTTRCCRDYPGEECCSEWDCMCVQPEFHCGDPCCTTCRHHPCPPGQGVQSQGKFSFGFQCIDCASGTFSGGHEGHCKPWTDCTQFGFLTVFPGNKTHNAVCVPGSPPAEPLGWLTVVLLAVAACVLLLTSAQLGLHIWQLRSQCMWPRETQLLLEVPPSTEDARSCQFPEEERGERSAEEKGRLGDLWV

cyno GITR-CHO [2] = target: T2, cyno GITR-CHO (cynomolgus monkey); assay: flow cytometry on cyno GITR-CHO cells
T2 construct: expressed on the surface of CHO cells, construct not described; also called cynomolgus GITR expressed on the surface of CHO cells

human GITR-CHO [3] = target: T1, human GITR-CHO; assay: flow cytometry on human GITR-CHO cells; remark: listed apart in the source
cyno GITR-CHO [4] = target: T2, cyno GITR-CHO; assay: flow cytometry on cyno GITR-CHO cells; remark: listed apart in the source
human GITR-CHO [5] = target: T1, human GITR-CHO; assay: flow cytometry on human GITR-CHO cells; remark: listed apart in the source
[6] = target: T3, GITR expressed on CHO cells (Homo sapiens (Human), UniProt Q9Y5U5 26-241); assay: flow cytometry on GITR-expressing CHO cells, MFI-FL4
T3 construct: also called glucocorticoid-induced TNFR-related protein; TNFRSF18
T3 sequence: T1 sequence (looked up)

[7] = target: T3, GITR expressed on CHO cells; assay: flow cytometry competition on GITR-expressing CHO cells; blocked ligand recombinant GITRL; readout GITRL bound, MFI-FL1
Source text: Briefly, in these studies, a flow cytometry assay using GITR expressing CHO cells and recombinant GITRL was used to implement to assess blocking capacity. The GITR antibody, TRX-518, was used as a control for these studies.

cyno GITR-CHO [8] = target: T2, cyno GITR-CHO; assay: flow cytometry on cyno GITR-CHO cells; remark: listed apart in the source
human GITR-CHO [9] = target: T1, human GITR-CHO; assay: flow cytometry on human GITR-CHO cells; remark: listed apart in the source

EC50 (read off the curve) (human GITR-CHO [3]): ~4 nM
EC50 (read off the curve) (cyno GITR-CHO [4]): ~1 nM
B4: hzCC04v5.2 (VHH)
VHH: EVQLLESGGGEVQPGGSLRLSCAASGFTFSTHGMDWFRQAPGKDLEWVSAIQSGGSWTSYASSVKGRFTISRDNAKNTLYLQMNNLRAEDTAVYWCQNRVTRGQGTLVTV
notes: sheet prints hzCC04, text hzC04; also called hzC04v5.2

EC50 (read off the curve) (human GITR-CHO [3]): ~4 nM
EC50 (read off the curve) (cyno GITR-CHO [4]): ~1 nM
B5: hzCC04v5.4 (VHH)
VHH: B4 VHH with N84S, N85S, A88P
notes: sheet prints hzCC04, text hzC04; also called hzC04v5.4

binding result (human GITR-CHO [5]): binds
B6: hzCC04v1.2 (VHH)
VHH: B4 VHH with Q52N, S53N, N84S, N85S, W95Y
notes: sheet prints hzCC04v1.2; also called hzC04v1.2

EC50 (read off the curve) (cyno GITR-CHO [8]): ~5 nM
EC50 (read off the curve) (human GITR-CHO [9]): ~4 nM
B13: hzC06v3.4 (VHH)
VHH: EVQLLESGGGEVQPGGSLRLSCAASGSVFSIDAMGWYRQAPGKQRELVAVLSGISSAKYAESVKGRFTISRDNAKNTVYLQMSSLRAEDTAVYYCYADVSTGWGRDAHGYWGQGTLVTV

EC50 (read off the curve) (cyno GITR-CHO [8]): ~4 nM
EC50 (read off the curve) (human GITR-CHO [9]): ~4 nM
B14: hzC06v3.6 (VHH)
VHH: B13 VHH with D72A, N73S, K75P

Continued, binder first:

B1: hzCC04v5 (VHH)
VHH: B4 VHH with N84S, N85S
notes: also called hzC04v5
EC50 (read off the curve) (human GITR-CHO [1]): ~3 nM
EC50 (read off the curve) (cyno GITR-CHO [2]): ~2 nM

B2: hzCC04v5.3 (VHH)
VHH: B4 VHH with Q82E, N84S, N85S
notes: sheet prints hzCC04, text hzC04; also called hzC04v5.3
EC50 (read off the curve) (human GITR-CHO [3]): ~5 nM
EC50 (read off the curve) (cyno GITR-CHO [4]): ~2 nM

B3: hzCC04v1 (VHH)
VHH: B4 VHH with Q52N, S53N, N84S, N85S
notes: sheet prints hzCC04v1; also called hzC04v1
binding result (human GITR-CHO [5]): binds

B7: hzCC04v1.2.1 (VHH)
VHH: B4 VHH with Q52N, S53Q, N84S, N85S, W95Y
notes: also called hzC04v1.2.1
EC50 (read off the curve) (human GITR-CHO [1]): ~2 nM
EC50 (read off the curve) (cyno GITR-CHO [2]): ~2 nM

B8: hzCC04v5.1 (VHH)
VHH: B4 VHH with Q82E, R87K, A88P
notes: sheet prints hzCC04, text hzC04; also called hzC04v5.1
EC50 (read off the curve) (human GITR-CHO [3]): ~4 nM
EC50 (read off the curve) (cyno GITR-CHO [4]): ~2 nM

B9: C06 (VHH, not shown: a dimerising Fc or GST; small tags and cut ends)
VHH: QVQLQESGGGLVQAGGSLRLSCAASGSVFSIDAMGWYRLAPGQQRELVAVLNGISSAKYADSVKGRFTISGDSAKNAVYLQMDGLKPEDTAVYYCYADVSTGWGRDAHGYWGQGTQVTVSS
EC50 (read off the curve) [6]: ~3 nM
IC50 (read off the curve) [7]: ~2 nM

B10: 2A1 (VHH, not shown: a dimerising Fc or GST; small tags and cut ends)
VHH: EVQLVQSGGGLVQPGGSLRLSCAASGNIFSIDAMGWYRQAPGRQRELVAQIPGGPTDSVKGRFTVSGNSAKNTGYLQMNTLKPEDTAVYYCNIVASTSWGSPSKVYWGQGTQATVSS
EC50 (read off the curve) [6]: ~10 nM
IC50 (read off the curve) [7]: ~10 nM

B11: F05 (VHH, not shown: a dimerising Fc or GST; small tags and cut ends)
VHH: QVQLVQSGGGLVQAGGSLRLSCTASGSIFSINHMAWYRQAPGKQREMVAHITGGASTKYADSVKGRFTISRDSALNTVSLRMNSLKPEDTAVYYCNAEVNEGWNADYYDVWGQGTQVTVSS
EC50 (read off the curve) [6]: ~4 nM
IC50 (read off the curve) [7]: ~4 nM

B12: hzC06v3.3 (VHH)
VHH: B13 VHH with N73S, T77A, S83D, S84G, R86K, A87P
EC50 (read off the curve) (cyno GITR-CHO [8]): ~5 nM
EC50 (read off the curve) (human GITR-CHO [9]): ~4 nM
